In assay [1] the test system is PC-3 cells. Description: Plating efficiency assay. In kind it is cell-based. The conditions noted are these: PC-3-MSF-A cells; PC-3-Neo 16.8%, p<0.001. As to the method: Plating Efficiency assay—PC-3-Neo and PC-3-MSF-A cells were cultured in 100 mm-diameter plate (1000 cells/plate) and incubated to allow colony formation. The cultures were monitored on a daily basis and when colonies were visible (approximately after 2 weeks) cells were fixed and stained with 90% EtOH, 5% Acetic acid, 0.01% Coomassie brilliant blue (Sigma-Aldrich, Saint Louis, Mo.). Plating was done in triplicates. Colonies containing ≧20 cells were counted. Plating efficiency (%) was calculated as number of colonies formed/number of cells plated×100.

Assay [2] concerns HIF-1 transcriptional activity. Description: HRE-dependent luciferase reporter gene assay in PC-3 cells. The class given is cell-based. The conditions noted are these: pooled PC-3-MSF-A vs PC-3-Neo cells. As to the method: Reporter gene assay and luminescence measurements—HRE-dependent luciferase activity was performed using the pBI-GL construct (pBI-GL V6L) containing six tandem copies of the VEGF hypoxia response element as previously described (Mabjeesh et al., 2002; Post and Van Meir, 2001). Cells were grown in 6-well plates and then transiently transfected in triplicate with a total of 1 μg DNA including 0.1 μg of the reporter plasmid, pBI-GL V6L. Duplicate sets of transfected cell-culture plates were then separated and incubated for 16 hours under either normoxic or hypoxic conditions. Luciferase enzymatic activity was measured using the commercial kit TROPIX (Bedford, Mass.) in the Galaxy luminometer (BMG Labtechnologies LUMIstar) following the manufacturer's instructions. Arbitrary Luciferase activity units were normalized to the amount of protein in each assay point.
To investigate the effect of MSF-A binding on HIF-1α function, the transcriptional activity of the HIF-1 complex was determined using a reporter gene assay as previously described (Mabjeesh N J et al. 2ME2 inhibits tumor growth and angiogenesis by disrupting microtubules and dysregulating HIF. Cancer Cell 2003; 3: 363-375). […]
In general terms: In a reporter assay the amount or activity of a reporter protein is the signal.

The target in assay [3] is T1, HIF-1α protein (Homo sapiens, UniProt Q16665).
T1 construct: expressed in transfected cells; host or cells: HEK 293
T1 sequence (Q16665 whole entry): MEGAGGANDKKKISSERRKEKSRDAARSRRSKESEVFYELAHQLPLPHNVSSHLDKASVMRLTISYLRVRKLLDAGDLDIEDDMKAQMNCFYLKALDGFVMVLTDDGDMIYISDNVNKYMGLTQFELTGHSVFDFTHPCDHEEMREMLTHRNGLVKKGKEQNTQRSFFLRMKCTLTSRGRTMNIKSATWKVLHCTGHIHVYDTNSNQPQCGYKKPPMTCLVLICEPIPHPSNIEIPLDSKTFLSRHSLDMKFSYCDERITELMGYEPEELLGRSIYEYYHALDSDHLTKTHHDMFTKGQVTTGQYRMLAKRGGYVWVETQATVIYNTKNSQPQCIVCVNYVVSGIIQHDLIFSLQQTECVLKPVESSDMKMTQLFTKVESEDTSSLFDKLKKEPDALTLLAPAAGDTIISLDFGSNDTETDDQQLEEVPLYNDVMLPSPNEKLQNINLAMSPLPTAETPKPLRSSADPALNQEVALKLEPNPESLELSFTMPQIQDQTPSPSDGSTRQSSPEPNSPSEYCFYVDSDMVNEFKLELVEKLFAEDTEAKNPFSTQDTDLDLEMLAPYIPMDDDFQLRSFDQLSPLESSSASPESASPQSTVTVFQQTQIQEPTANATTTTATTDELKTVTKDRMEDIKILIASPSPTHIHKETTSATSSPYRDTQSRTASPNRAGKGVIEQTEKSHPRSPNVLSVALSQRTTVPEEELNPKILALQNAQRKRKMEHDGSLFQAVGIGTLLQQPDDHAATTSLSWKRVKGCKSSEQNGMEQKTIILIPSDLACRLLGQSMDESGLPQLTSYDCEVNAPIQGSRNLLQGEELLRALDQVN
Description: Co-immunoprecipitation / immunoblotting with HIF-1α in transfected HEK 293 cells. In kind it is binding. The conditions noted are these: transient transfection. As to the method:
FIGS. 9a-c are Western blot analyses of FLAG (MSF-A; FIGS. 9a and b) and HIF-1α (FIG. 9c) depicting the interaction between HIF-1α and the WT or deleted forms of MSF-A. HEK 293 cells were transiently co-transfected with expression vector encoding Flag-MSF-A (WT; p3xFlag-MSF-A), Flag-ΔG (AG; p3xFlag-ΔG-MSF-A), Flag-ΔN (ΔN; p3xFlag-ΔN-MSF-A) or empty vector (EV; p3xFlag-cmv-25). After 48 hours, the cells were lysed, subjected for immunoprecipitation (IP) using HIF-1α antibody and then immunoblotted (IB) with HIF-1α or Flag antibodies. FIG. 9a—whole cell extracts (WCE) subjected to IB with the Flag antibody (MSF-A); FIG. 9b—IP prepared by the HIF-1α antibody were subjected to IB with the Flag antibody (MSF-A); FIG. 9c—IP prepared by the HIF-1α antibody were subjected to IB with the HIF-1α antibody.
Immunoblotting—Proteins (30-60 μg/lane) from WCEs were resolved by 7.5% SDS-PAGE, electro-blotted to nitrocellulose membranes and incubated with the indicated primary antibodies, followed by horseradish peroxidase-conjugated secondary antiserum (Amersham Biosciences, Piscataway, N.J.). Immunoreactivity was visualized by Amersham enhanced chemiluminescence reagent (Amersham Biosciences, Piscataway, N.J.). For sequential blotting with additional antibodies, the membranes were stripped from the first primary antibody using a restore Western blot stripping buffer (Pierce, Rockford, Ill.) and were re-probed using the second primary antibody as indicated.
Immunoprecipitation—Cells were washed twice with ice-cold PBS, lysed in 20 mM Na-HEPES, pH 7.5, 0.5% Nonidet P-40, 0.1M NaCl, 2 mM EDTA, 10% Glycerol and 2 mM DTT supplemented with protease and phosphatase inhibitors, and were subjected to immunoprecipitation using anti-HIF-1α antibody and protein G-agarose beads (Pierce, Ill.) according to the manufacturer's instructions.
To confirm the interaction between the HIF-1α and the MSF-A proteins, HEK 293 cells were transiently co-transfected with the p3xFlag-MSF-A and the pcDNA3.1-HIF-1α vectors, and were grown for 24 hours under normoxic conditions (i.e., conditions of 20% oxygen), following which whole cell extracts (WCE) were subjected to co-immunoprecipitation (IP) using anti-FLAG or anti-HIF-1α antibodies. Following IP, the proteins were subjected to SDS-PAGE and immunoblotting (IB) using the counterpart antibody. As is shown in FIGS. 3a-d, following transfection with both expression vectors (i.e., pcDNA3.1-HIF-1α and p3xFlag-MSF-A) immunoprecipitates generated using either the anti-HIF-1α antibody or the anti-Flag antibody included the reciprocal proteins, i.e., the Flag-MSF-A or HIF-1α proteins, respectively.

B1: MSF-A: myeloid/lymphoid leukemia septin-like fusion protein A (SEQ ID NO:3), over-expressed from the p3xFlag-MSF-A vector (protein, listed as Homo sapiens)
chain: MKKSYSGGTRTSSGRLRRLGDSSGPALKRSFEVEEVETPNSTPPRRVQTPLLRATVASSTQKFQDLGVKNSEPSARHVDSLSQRSPKASLRRVELSGPKAAEPVSRRTELSIDISSKQVENAGAIGPSRFGLKRAEVLGHKTPEPAPRRTEITIVKPQESAHRRMEPPASKVPEVPTAPATDAAPKRVEIQMPKPAEAPTAPSPAQTLENSEPAPVSQLQSRLEPKPQPPVAEATPRSQEATEAAPSCVGDMADTPRDAGLKQAPASRNEKAPVDFGYVGIDSILEQMRRKAMKQGFEFNIMVVGQSGLGKSTLINTLFKSKISRKSVQPTSEERIPKTIEIKSITHDIEEKGVRMKLTVIDTPGFGDHINNENCWQPIMKFINDQYEKYLQEEVNINRKKRIPDTRVHCCLYFIPATGHSLRPLDIEFMKRLSKVVNIVPVIAKADTLTLEERVHFKQRITADLLSNGIDVYPQKEFDEDSEDRLVNEKFREMIPFAVVGSDHEYQVNGKRILGRKTKWGTIEVENTTHCEFAYLRDLLIRTHMQNIKDITSSIHFEAYRVKRLNEGSSAMANGVEEKEPEAPEM
modifications: 3xFlag tag
For the molecule B1, the plating efficiency in assay [1] was 49.3%. Besides, the “HIF-1 transcriptional activity (luciferase assay), stable transfectants” value in assay [2] is given as “significant increase”. The “association with HIF-1α protein (co-immunoprecipitation)” value in assay [3] was “strong association”.

Values taken from patent publication US8143228B2, “Agents capable of downregulating an MSF-A dependent HIF-1α and use thereof in cancer treatment” (Medical Research Fund of Tel Aviv Sourasky Medical Center, priority 2004, dated 2012).
